For test [1], the target named is recombinant cynomolgus monkey B7-H3 protein (cynomolgus monkey). Put plainly: SPR (Biacore), antibody captured on anti-human IgG chip, B7-H3 protein injected. A general note: Surface plasmon resonance follows binding to a sensor surface in real time, without labels.
The target is the same in test [2]. Kind of test: ELISA, plate coated with cynomolgus monkey B7-H3. A general note: ELISA stands for enzyme-linked immunosorbent assay.
In test [3] the target is T1, recombinant human B7-H3-mFc protein (human) (UniProt Q5ZPR3).
T1 sequence: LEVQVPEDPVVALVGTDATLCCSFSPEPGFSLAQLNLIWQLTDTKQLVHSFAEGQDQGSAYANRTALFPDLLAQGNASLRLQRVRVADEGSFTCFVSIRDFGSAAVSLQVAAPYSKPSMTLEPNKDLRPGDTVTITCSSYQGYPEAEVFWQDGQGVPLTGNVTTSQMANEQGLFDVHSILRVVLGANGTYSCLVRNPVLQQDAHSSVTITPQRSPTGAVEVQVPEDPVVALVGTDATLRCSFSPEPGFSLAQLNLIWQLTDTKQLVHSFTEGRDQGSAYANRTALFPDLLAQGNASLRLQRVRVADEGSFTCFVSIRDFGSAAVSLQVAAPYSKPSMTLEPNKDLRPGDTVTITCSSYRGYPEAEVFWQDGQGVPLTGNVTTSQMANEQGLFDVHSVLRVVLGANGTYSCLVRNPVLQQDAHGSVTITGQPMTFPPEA
Put plainly: competitive binding ELISA on B7-H3 protein, competitor mAb 91H06.

Test [4] concerns the target T1, recombinant human B7-H3-mFc protein (human). Kind of test: competitive binding ELISA on B7-H3 protein, competitor Ifinatamab (4 µg/mL).
Test [5] has the same target. Put plainly: competitive binding ELISA on B7-H3 protein, no competitor.

B1: mAb 91H06 (antibody, V domains shown)
VH: EVQLVESGGGLVQPGGSLRLSCAASGFTFSDYGMGWVRQAPGKGLEWVSSISWDSSSKEYADSVKGRFTISRDNSKNTLYLQMNSLRAEDTAVYYCARAWIAIIGGGAHFDYWGQGTLVTVSS
VL: DIQMTQSPSSLSASVGDRVTITCRASQSVSSHLAWYQQKPGKAPKLLIYLTSSLQSGVPSRFSGSGSGTDFTLTISSLQPEDFATYYCMQSKSLPFTFGQGTKVEIKR
Take B1: the Kd – broadly, the free concentration of one partner at which half of the binding sites on the other are occupied at equilibrium, for simple one-to-one binding – in test [1] was 0.471 nM. Also, in test [2], the half-maximal effective concentration (EC50) (in general, the concentration giving half of the maximal effect) is 0.0244 nM.

B2: Ifinatamab-biotin (antibody, INN chains, looked up, V domains shown)
VH: QVQLVQSGAEVKKPGSSVKVSCKASGYTFTNYVMHWVRQAPGQGLEWMGYINPYNDDVKYNEKFKGRVTITADESTSTAYMELSSLRSEDTAVYYCARWGYYGSPLYYFDYWGQGTLVTVSS
VL: EIVLTQSPATLSLSPGERATLSCRASSRLIYMHWYQQKPGQAPRPLIYATSNLASGIPARFSGSGSGTDFTLTISSLEPEDFAVYYCQQWNSNPPTFGQGTKVEIK
modifications: biotin
Consider B2, for which the results for the half-maximal effective concentration (EC50) in test [3], in test [4] and in test [5] were 0.0346 nM, 1.78 nM and 0.0331 nM, respectively.
